Experimental findings from patent EP4818204A1 (Nanjing Leads Biolabs Co., Ltd., dated 2026) are described below.

Where two headings read alike, the source gives them in different places.

Assay [1] deals with T1, human GDF11 protein (human, UniProt O95390 299-407).
T1 construct: Bought
T1 sequence (looked up): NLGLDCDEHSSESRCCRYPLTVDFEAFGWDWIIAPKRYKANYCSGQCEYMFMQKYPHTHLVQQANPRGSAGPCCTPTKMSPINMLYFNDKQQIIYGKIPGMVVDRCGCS
Description: ELISA, coated protein, antibody at 4 µg/mL.

For assay [2], the target named is T2, human GFRα1 protein (human, UniProt P56159 25-429, limits assumed).
T2 construct: Bought
T2 sequence (looked up): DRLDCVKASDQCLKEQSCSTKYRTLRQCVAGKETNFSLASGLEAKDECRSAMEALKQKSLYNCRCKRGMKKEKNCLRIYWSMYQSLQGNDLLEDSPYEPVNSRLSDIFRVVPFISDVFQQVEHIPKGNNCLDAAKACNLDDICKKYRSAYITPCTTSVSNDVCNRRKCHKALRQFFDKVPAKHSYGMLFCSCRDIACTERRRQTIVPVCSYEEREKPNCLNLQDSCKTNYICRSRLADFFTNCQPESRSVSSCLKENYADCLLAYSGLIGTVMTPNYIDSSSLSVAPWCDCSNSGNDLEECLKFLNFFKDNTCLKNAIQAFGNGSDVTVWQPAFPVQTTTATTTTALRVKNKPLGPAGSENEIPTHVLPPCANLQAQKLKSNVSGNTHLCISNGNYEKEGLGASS
Description: ELISA, coated protein, antibody at 4 µg/mL.

A further assay deals with T3, human BMP4 protein (human, UniProt P12644 293-408).
T3 construct: Bought
T3 sequence (looked up): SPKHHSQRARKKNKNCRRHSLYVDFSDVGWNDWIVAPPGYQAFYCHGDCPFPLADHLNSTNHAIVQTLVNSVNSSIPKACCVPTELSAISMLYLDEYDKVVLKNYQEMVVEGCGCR
Description: ELISA, coated protein, antibody at 4 µg/mL.

The next assay addresses T4, human GDF3 protein (human, UniProt Q9NR23 251-364, limits assumed).
T4 construct: Bought
T4 sequence (looked up): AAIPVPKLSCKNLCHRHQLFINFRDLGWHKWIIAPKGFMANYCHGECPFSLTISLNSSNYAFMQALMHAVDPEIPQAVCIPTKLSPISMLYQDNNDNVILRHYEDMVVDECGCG
Description: ELISA, coated protein, antibody at 4 µg/mL.

A further assay concerns the target T5, human Activin A protein (human, UniProt P08476 311-426).
T5 construct: Bought; Activin A is by nature a dimer of inhibin beta A chains
T5 sequence (looked up): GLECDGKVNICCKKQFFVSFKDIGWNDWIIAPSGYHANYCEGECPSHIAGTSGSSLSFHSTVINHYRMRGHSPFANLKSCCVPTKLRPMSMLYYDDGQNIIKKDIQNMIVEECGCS
Description: ELISA, coated protein, antibody at 4 µg/mL.

The target in assay [3] is T6, human TGFβ1 protein (human, UniProt P01137 279-390).
T6 construct: Bought
Description: ELISA, coated protein, antibody at 4 µg/mL.

Assay [4] deals with T7, Human GDF15 protein (human, UniProt Q99988 197-308).
T7 construct: Natural GDF15 is said to be a disulfide-linked homodimer; also called Human-GDF15-his
T7 sequence: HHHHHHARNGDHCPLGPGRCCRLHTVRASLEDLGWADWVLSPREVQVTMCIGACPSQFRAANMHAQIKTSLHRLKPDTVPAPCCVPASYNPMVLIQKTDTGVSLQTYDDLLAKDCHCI
Description: ELISA, coated protein, antibody at 4 µg/mL.

Assay [5] addresses T8, human BMP2 protein (human, UniProt P12643 283-396).
T8 construct: Bought
Description: ELISA, coated protein, antibody at 4 µg/mL.

Assay [6] has as its target T1, human GDF11 protein. Description: ELISA, coated protein, antibody at 4 µg/mL. The source holds these as a separate data set.
For assay [7], the target named is T2, human GFRα1 protein. Description: ELISA, coated protein, antibody at 4 µg/mL. This is another data set of the same source.
Assay [8] has as its target T9, human GDNF protein (human, UniProt P39905 78-211).
T9 construct: Bought
T9 sequence (looked up): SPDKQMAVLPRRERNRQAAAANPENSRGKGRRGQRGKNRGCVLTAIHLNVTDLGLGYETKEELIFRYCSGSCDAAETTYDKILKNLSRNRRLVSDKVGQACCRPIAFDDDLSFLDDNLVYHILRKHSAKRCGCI
Description: ELISA, coated protein, antibody at 4 µg/mL.

Assay [9] has as its target T6, human TGFβ1 protein. Description: ELISA, coated protein, antibody at 4 µg/mL. This is another data set of the same source.
In assay [10] the target is T7, Human GDF15 protein. Description: ELISA, coated protein, antibody at 4 µg/mL. This is another data set of the same source.
The target in another assay is T10, human GDF2 protein (human, UniProt Q9UK05 320-429).
T10 construct: Bought
T10 sequence (looked up): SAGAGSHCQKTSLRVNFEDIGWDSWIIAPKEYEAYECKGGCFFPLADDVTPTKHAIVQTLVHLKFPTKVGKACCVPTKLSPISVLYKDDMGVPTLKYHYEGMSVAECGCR
Description: ELISA, coated protein, antibody at 4 µg/mL.

The target of assay [11] is T8, human BMP2 protein. Description: ELISA, coated protein, antibody at 4 µg/mL. This is another data set of the same source.
For assay [12], the target named is T9, human GDNF protein. Description: ELISA, coated protein.
Assay [13] concerns the target human GDF8 protein (human) (UniProt O14793). Description: ELISA, coated protein, antibody at 4 µg/mL.
Assay [14] addresses human AMH protein (human) (UniProt P03971). Description: ELISA, coated protein, antibody at 4 µg/mL.
The next assay deals with T11, human FcRn protein (human, UniProt P55899 24-297).
T11 construct: Bought, loaded on a streptavidin (SA) sensor; FcRn is by nature a heterodimer with beta-2-microglobulin
Description: BLI (Octet RED96e), FcRn on SA sensor, antibody as analyte, binding and dissociation at pH 6.0, 1:1 model.

Assay [15] addresses T9, human GDNF protein. Description: ELISA, coated protein, antibody at 4 µg/mL. This is another data set of the same source.

T6 sequence (P01137 279-390 limits assumed): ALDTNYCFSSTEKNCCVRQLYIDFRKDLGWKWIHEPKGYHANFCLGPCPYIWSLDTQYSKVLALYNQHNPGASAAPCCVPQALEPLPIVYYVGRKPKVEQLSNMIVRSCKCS
T11 sequence (P55899 24-297 limits assumed, form in doubt): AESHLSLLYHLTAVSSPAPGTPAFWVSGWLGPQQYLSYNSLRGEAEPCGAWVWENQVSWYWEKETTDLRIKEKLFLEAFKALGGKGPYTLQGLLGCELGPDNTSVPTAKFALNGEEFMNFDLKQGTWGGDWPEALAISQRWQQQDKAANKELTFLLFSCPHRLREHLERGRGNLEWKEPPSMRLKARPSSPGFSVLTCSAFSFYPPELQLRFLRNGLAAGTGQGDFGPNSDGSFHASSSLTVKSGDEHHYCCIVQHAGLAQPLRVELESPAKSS
T8 sequence (P12643 283-396 limits assumed): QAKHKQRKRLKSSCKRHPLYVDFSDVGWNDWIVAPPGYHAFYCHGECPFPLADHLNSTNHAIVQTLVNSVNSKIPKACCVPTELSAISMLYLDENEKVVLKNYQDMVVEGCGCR

B1: HuVHH43-3 (Fc fusion)
heavy: QLQLVESGGGLVQPGGSLRLSCAASGHTYGMGWFRQAPGKAREIVSAISRSGSSTYYADSVKGRFTISRDNSKNTLYLQMNSLRAEDTAVYICGASTSALVPTTTGMYAYWGQGTRVTVSSEPKSSDKTHTCPPCPAPEAAGAPSVFLFPPKPKDTLMISRTPEVTCVVVDVSHEDPEVKFNWYVDGVEVHNAKTKPREEQYNSTYRVVSVLTVLHQDWLNGKEYKCKVSNKALPAPIEKTISKAKGQPREPQVYTLPPSREEMTKNQVSLTCLVKGFYPSDIAVEWESNGQPENNYKTTPPVLDSDGSFFLYSKLTVDKSRWQQGNVFSCSVMHEALHNHYTQKSLSLSPGK
notes: also called huVHH43-IgG1-mut(L234A,L235A,G237A); VHH humanized anti-GDF15 antibody
On to B1, for which the OD value with human GDF11 protein [1] was found to be 0.04 OD 450 nm-620 nm; in the assay with human GFRα1 protein [2] it was 0.27 OD 450 nm-620 nm; with human BMP4 protein, 0.0539 OD 450 nm-620 nm; with human GDF3 protein it was 0.0406 OD 450 nm-620 nm; with human Activin A protein, 0.0493 OD 450 nm-620 nm; in the assay with human TGFβ1 protein [3], 0.055 OD 450 nm-620 nm. Besides, the OD value in the assay with Human GDF15 protein [4] was 3.21 OD 450 nm-620 nm; with human BMP2 protein [5] it was 0.0538 OD 450 nm-620 nm.

B2: Hu19C4C7 (antibody, human IgG1, kappa)
heavy: QVQLVQSGAEVKKPGSSVKVSCKASGYSFTGYIMNWVRQAPGQSLEWMGDIDPYYGGPNYNQKFQGRVTITVDKSTSTAYMELSSLRSEDTAVYYCSRRDYNYGSFAYWGQGTLVTVSSASTKGPSVFPLAPSSKSTSGGTAALGCLVKDYFPEPVTVSWNSGALTSGVHTFPAVLQSSGLYSLSSVVTVPSSSLGTQTYICNVNHKPSNTKVDKKVEPKSCDKTHTCPPCPAPEAAGAPSVFLFPPKPKDTLMISRTPEVTCVVVDVSHEDPEVKFNWYVDGVEVHNAKTKPREEQYNSTYRVVSVLTVLHQDWLNGKEYKCKVSNKALPAPIEKTISKAKGQPREPQVYTLPPSREEMTKNQVSLTCLVKGFYPSDIAVEWESNGQPENNYKTTPPVLDSDGSFFLYSKLTVDKSRWQQGNVFSCSVMHEALHNHYTQKSLSLSPGK
light: QIVLTQSPATLSLSPGERATLSCRASSSVNYMHWYQQKPGQAPRPLIYATSNLATGIPARFSGSGSGTDYTLTISSLEPEDFAVYYCQQWSDNPPTFGQGTKLEIKRTVAAPSVFIFPPSDEQLKSGTASVVCLLNNFYPREAKVQWKVDNALQSGNSQESVTEQDSKDSTYSLSSTLTLSKADYEKHKVYACEVTHQGLSSPVTKSFNRGEC
notes: Humanized form of murine 19C4C7; human IgG1 constant region with L234A, L235A, G237A and kappa light chain constant region; also called hu19C4C7-IgG1-mut(L234A,L235A,G237A)
B2: the OD value in the assay with human GDF11 protein [6] was 0.0735 OD 450 nm-620 nm; with human GFRα1 protein [7], 0.11 OD 450 nm-620 nm; with human GDNF protein [8] it was 0.241 OD 450 nm-620 nm; with human TGFβ1 protein [9], 0.103 OD 450 nm-620 nm; with Human GDF15 protein [10] it was 2.47 OD 450 nm-620 nm; in the assay with human GDF2 protein it was 0.0616 OD 450 nm-620 nm. For the same molecule, the OD value stood at 0.0764 OD 450 nm-620 nm in the assay with human BMP2 protein [11]; 0.0368 OD 450 nm-620 nm with human GDF11 protein [1]; 0.0468 OD 450 nm-620 nm with human GFRα1 protein [2]; 0.0531 OD 450 nm-620 nm with human GDNF protein [15]; 0.0432 OD 450 nm-620 nm with human BMP4 protein; 0.0418 OD 450 nm-620 nm with human GDF3 protein. The OD value with human Activin A protein amounted to 0.0577 OD 450 nm-620 nm; with human TGFβ1 protein [3], 0.0437 OD 450 nm-620 nm; in the assay with Human GDF15 protein [4], 3.27 OD 450 nm-620 nm; with human BMP2 protein [5] it was 0.0457 OD 450 nm-620 nm. In addition, the binding result with human GDNF protein [12] is listed as “no binding (tested: 4 µg/mL)”. In addition, the OD value (OD 450 nm-620 nm) came out at 0.0505 in assay [13] and 0.0887 in assay [14]. Besides, the dissociation constant (Kd) in the assay with human FcRn protein is 7.41 nM. Also, the koff in the assay with human FcRn protein turned out to be 0.0146 s⁻¹. Further, in the assay with human FcRn protein, the kon was found to be 1.97e+06 M⁻¹ s⁻¹.

B3: Hu21H6D2 (antibody, human IgG1, kappa, V domains shown)
VH: QVQLVQSGAEVKKPGASVKVSCKASGYTFTGYIMNWVRQAPGQRLEWMGDIDPYYGDAKYNQKFKGKVTITVDKSASTAYMELSSLRSEDTAVYYCARRDYDHGSFAYWGQGTLVTVSS
VL: EIVLTQSPDFQSVTPKEKVTITCSASSSVNYMHWYQQKPDQSPKRLIYDTSKLASGVPSRFSGSGSGTDYTLTINSLEAEDAATYYCQQWSSNPPTFGQGTKLEIKR
notes: Humanized form of murine 21H6D2; human IgG1 constant region with L234A, L235A, G237A and kappa light chain constant region; also called hu21H6D2-IgG1-mut(L234A,L235A,G237A)
Consider B3, for which the binding result with human GDNF protein [12] is recorded as “no binding (tested: 4 µg/mL)”. The OD value is 0.0426 OD 450 nm-620 nm with human GDF11 protein [1]; 0.0655 OD 450 nm-620 nm in the assay with human GFRα1 protein [2]; 0.105 OD 450 nm-620 nm with human GDNF protein [15]; 0.0411 OD 450 nm-620 nm in the assay with human BMP4 protein; 0.041 OD 450 nm-620 nm with human GDF3 protein; 0.0632 OD 450 nm-620 nm in the assay with human Activin A protein. The figures for the OD value with human TGFβ1 protein [3], with Human GDF15 protein [4] and in the assay with human BMP2 protein [5] were 0.0426 OD 450 nm-620 nm, 3.17 OD 450 nm-620 nm and 0.0683 OD 450 nm-620 nm, respectively.
